Measured values taken from patent US20200362046A1 (published 2020).

Tests used:
[1] = target: KIR-Fc (purified recombinant "target"-Fc protein); test: phage ELISA on purified target-Fc; signal over non-specific control (e.g., IgG1-Fc); average where several clones share the sequence
[2] = target: T1, PD-L1-Fc (purified recombinant "target"-Fc protein) (UniProt Q9NZQ7 19-238); test: phage ELISA on purified target-Fc; signal over non-specific control (e.g., IgG1-Fc)
T1 construct: also called B7-H1; not shown: Fc part of the fusion
T1 sequence (Q9NZQ7 19-238 limits assumed): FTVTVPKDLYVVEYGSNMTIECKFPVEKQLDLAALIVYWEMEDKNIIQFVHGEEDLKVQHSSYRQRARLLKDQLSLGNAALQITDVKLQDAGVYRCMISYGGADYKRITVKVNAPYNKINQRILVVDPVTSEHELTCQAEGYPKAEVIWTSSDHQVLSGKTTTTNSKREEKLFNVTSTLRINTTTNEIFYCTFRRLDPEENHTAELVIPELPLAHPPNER
Method: Selections were also performed using F1, F2, F3. C1 & C2 trinucleotide phosphoramidite libraries. In most cases, libraries were pooled prior to use in selection. By combining equal volumes of the individual libraries. Pool F (libraries F1, F2 and F3) and Pool C (libraries C1 and C2) were generated. These libraries were used in selections for DBDpp binders to 4-1BB/CD137 as well as a larger panel of purified recombinant “target”-Fc proteins, including CD47, CTLA4. DR5, KIR. LAG3, OX40, PD1, PD-L1 and TIM3. (Many of these targets are considered immuno-regulatory factors (Pardoll et al., Nat. Rev. Cancer 12:252-264 (2012)). After incubation of the target with the pools of DBDpp phage libraries, bound phage-target complexes were captured and separated from unbound phage with protein A beads (target proteins were Fc fusions). Alter three rounds of selection, rescued phage clones were screened by ELISA for binding to the selected target.
For each target, approximately 90 DBDpp phage clones were screened by ELISA for binding to the target protein and as well as a non-specific control (e.g., IgG1-Fc). […] In some instances, for the ELISA screening plate in which the majority of DBDpp clones were positive, the entire plate was sequenced.

[3] = target: KIR-Fc (purified recombinant "target"-Fc protein); test: as above

Row | ELISA ratio [1] | ELISA ratio [2] | Binder | other results
1 | 8.4 | – | SEQ ID NO 35 (designed binder) MGSWSEFYNRLDAIESRLLALGGSEAELALFEIQIARFEKVLQAYKGKGNPEVEALRGEARAIFAELYAYRHN | –
2 | – | 17.3 ratio | SEQ ID NO 60 (designed binder, also called DBDpp; library F3) MGSWYEFTVRLEAIHERLKALGGSEAELAAFEKEIAAFESELQAYKGKGNPEVEILRDDAAFIRRFLQAYRHN | –
3 | – | 12.2 ratio | SEQ ID NO 61 (designed binder, also called DBDpp; library F3) MGSWYEFDDRLNAIHDRLQALGGSEAELAAFEKEIAAFESELQAYKGKGNPEVEDLRDDAAFIRRFLQAYRHN | –
4 | – | – | SEQ ID NO 37 (designed binder) MGSWLWFKIFLAEIKYFLEALGGSEAELAAFDFEIHAFHVELFAYKGKGNPEVEVLREVAAEIRWDLQAYRHN | ELISA ratio [3]: 4.17
5 | 4.24 | – | SEQ ID NO 36 (designed binder) MGSWYEFYNRLYAIEIRLYALGGSEAELAAFEKEIAAFESELQAYKGKGNPEVERLRVRAAKIRVILQAYRHN | –
